# Substitutions are numbered along the chain they refer to.
# T1: ARHGEF11, O15085
# T1 sequence (O15085 42-136, limits assumed, looked up): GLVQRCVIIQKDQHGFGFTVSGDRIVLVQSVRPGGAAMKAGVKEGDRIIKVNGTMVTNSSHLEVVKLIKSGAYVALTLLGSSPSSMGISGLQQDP
# T2: DFNB31_1, Q9P202
# T2 sequence (Q9P202 135-233, limits assumed, looked up): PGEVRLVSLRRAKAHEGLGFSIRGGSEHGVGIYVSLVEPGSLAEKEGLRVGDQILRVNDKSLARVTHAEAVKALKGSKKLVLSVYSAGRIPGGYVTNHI
# T3: DFNB31_3, Q9P202
# T3 sequence (Q9P202 811-907, limits assumed, looked up): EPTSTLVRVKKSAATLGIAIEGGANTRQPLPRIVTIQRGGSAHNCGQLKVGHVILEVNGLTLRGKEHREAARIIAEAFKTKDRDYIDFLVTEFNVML
# T4: DLG3_3, Q92796
# T4 sequence (Q92796 374-475, limits assumed, looked up): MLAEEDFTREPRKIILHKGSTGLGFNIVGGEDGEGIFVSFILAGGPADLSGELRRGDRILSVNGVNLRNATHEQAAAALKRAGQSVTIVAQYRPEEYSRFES
# T5: GRIP1_3, Q9Y3R0
# T5 sequence (Q9Y3R0 247-346, limits assumed, looked up): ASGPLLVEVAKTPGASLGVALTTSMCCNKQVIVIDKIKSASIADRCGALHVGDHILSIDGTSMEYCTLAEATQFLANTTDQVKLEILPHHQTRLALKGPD
# T6: GRIP1_4, Q9Y3R0
# T6 sequence (Q9Y3R0 467-571, limits assumed, looked up): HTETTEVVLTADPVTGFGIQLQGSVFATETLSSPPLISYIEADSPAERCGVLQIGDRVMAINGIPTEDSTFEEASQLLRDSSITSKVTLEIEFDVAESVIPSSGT
# T7: HTRA3, P83110
# T7 sequence (P83110 354-453, limits assumed, looked up): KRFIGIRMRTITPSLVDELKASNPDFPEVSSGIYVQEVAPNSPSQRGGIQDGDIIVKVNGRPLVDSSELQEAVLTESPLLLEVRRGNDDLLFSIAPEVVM
# T8: LIN7B, Q9HAP6
# T8 sequence (Q9HAP6 88-185, limits assumed, looked up): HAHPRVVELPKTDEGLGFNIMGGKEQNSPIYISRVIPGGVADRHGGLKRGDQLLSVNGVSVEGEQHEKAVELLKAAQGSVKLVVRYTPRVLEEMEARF
# T9: LIN7C, Q9NUP9
# T9 sequence (Q9NUP9 88-185, limits assumed, looked up): T8 sequence (Q9HAP6 88-185, limits assumed, looked up) with A2S, D13E, V35I, V40I, Q65H, S79K, R89K, A96S
# T10: MPP7, Q5T2T1
# T10 sequence (Q5T2T1 134-230, limits assumed, looked up): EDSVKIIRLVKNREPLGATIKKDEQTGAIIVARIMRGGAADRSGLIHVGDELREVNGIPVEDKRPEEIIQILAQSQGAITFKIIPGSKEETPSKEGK
# T11: PDZRN3_1, Q9UPQ7
# T11 sequence (Q9UPQ7 244-349, limits assumed, looked up): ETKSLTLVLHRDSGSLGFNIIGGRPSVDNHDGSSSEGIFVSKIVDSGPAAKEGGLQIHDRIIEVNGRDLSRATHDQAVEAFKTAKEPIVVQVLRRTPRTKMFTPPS
# T12: SIPA1L2, Q9P2F8
# T12 sequence (Q9P2F8 945-1036, limits assumed, looked up): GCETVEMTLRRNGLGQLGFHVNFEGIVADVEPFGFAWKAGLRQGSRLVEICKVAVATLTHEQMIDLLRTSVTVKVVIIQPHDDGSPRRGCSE
# T13: SNTA1, Q13424
# T13 sequence (Q13424 82-180, limits assumed, looked up): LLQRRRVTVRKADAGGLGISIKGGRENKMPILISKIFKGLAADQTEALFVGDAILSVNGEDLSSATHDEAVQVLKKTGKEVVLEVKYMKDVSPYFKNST
# Target: T1, ARHGEF11, O15085
# Assay: holdup assay
# Design: key: below the threshold = too weak to quantify, mostly under pKd 3.1 to 4
# Conditions: plain residues with an end cap or a label only (N-terminal biotin on a linker: ado-ado)
row,pKd,Binder
1,below the threshold,"EFKQTSSFLV [JAM1, Q9Y624]"
2,below the threshold,"DFKHTKSFII [JAM2, P57087]"

# Target: CASK, O14936
# Assay: holdup assay
# Design: key: below the threshold = too weak to quantify, mostly under pKd 3.1 to 4
# Conditions: plain residues with an end cap or a label only (N-terminal biotin on a linker: ado-ado)
# CASK, O14936, sequence (O14936 487-570): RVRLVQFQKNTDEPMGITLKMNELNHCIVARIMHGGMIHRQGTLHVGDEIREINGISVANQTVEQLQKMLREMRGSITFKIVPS
row,pKd,Binder
1,below the threshold,"EFKQTSSFLV [JAM1, Q9Y624]"
2,below the threshold,"DFKHTKSFII [JAM2, P57087]"

# Target: T2, DFNB31_1, Q9P202
# Assay: holdup assay
# Design: key: below the threshold = too weak to quantify, mostly under pKd 3.1 to 4
# Conditions: plain residues with an end cap or a label only (N-terminal biotin on a linker: ado-ado)
row,pKd,Binder
1,below the threshold,"EFKQTSSFLV [JAM1, Q9Y624]"
2,below the threshold,"DFKHTKSFII [JAM2, P57087]"

# Target: T3, DFNB31_3, Q9P202
# Assay: holdup assay
# Design: key: below the threshold = too weak to quantify, mostly under pKd 3.1 to 4
# Conditions: plain residues with an end cap or a label only (N-terminal biotin on a linker: ado-ado)
row,pKd,Binder
1,3.93,"EFKQTSSFLV [JAM1, Q9Y624]"
2,3.71,"DFKHTKSFII [JAM2, P57087]"

# Target: T4, DLG3_3, Q92796
# Assay: holdup assay
# Design: key: below the threshold = too weak to quantify, mostly under pKd 3.1 to 4
# Conditions: plain residues with an end cap or a label only (N-terminal biotin on a linker: ado-ado)
row,pKd,Binder
1,below the threshold,"EFKQTSSFLV [JAM1, Q9Y624]"
2,below the threshold,"DFKHTKSFII [JAM2, P57087]"

# Target: DLG4_2, P78352
# Assay: holdup assay
# Design: key: below the threshold = too weak to quantify, mostly under pKd 3.1 to 4
# Conditions: plain residues with an end cap or a label only (N-terminal biotin on a linker: ado-ado)
# DLG4_2, P78352, sequence (P78352 155-259): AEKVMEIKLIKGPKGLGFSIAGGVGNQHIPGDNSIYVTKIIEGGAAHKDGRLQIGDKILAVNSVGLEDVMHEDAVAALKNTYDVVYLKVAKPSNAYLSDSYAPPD
row,pKd,Binder
1,3.47,"EFKQTSSFLV [JAM1, Q9Y624]"
2,below the threshold,"DFKHTKSFII [JAM2, P57087]"

# Target: FRMPD4, Q14CM0
# Assay: holdup assay
# Design: key: below the threshold = too weak to quantify, mostly under pKd 3.1 to 4
# Conditions: plain residues with an end cap or a label only (N-terminal biotin on a linker: ado-ado)
# FRMPD4, Q14CM0, sequence (Q14CM0 67-160): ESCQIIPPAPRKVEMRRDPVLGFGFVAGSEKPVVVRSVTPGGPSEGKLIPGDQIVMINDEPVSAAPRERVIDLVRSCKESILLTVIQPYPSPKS
row,pKd,Binder
1,3.76,"EFKQTSSFLV [JAM1, Q9Y624]"
2,below the threshold,"DFKHTKSFII [JAM2, P57087]"

# Target: GIPC2, Q8TF65
# Assay: holdup assay
# Design: key: below the threshold = too weak to quantify, mostly under pKd 3.1 to 4
# Conditions: plain residues with an end cap or a label only (N-terminal biotin on a linker: ado-ado)
# GIPC2, Q8TF65, sequence (Q8TF65 112-203): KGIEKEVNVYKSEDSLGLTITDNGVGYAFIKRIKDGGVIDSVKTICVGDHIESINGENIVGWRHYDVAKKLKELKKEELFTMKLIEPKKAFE
row,pKd,Binder
1,below the threshold,"EFKQTSSFLV [JAM1, Q9Y624]"
2,below the threshold,"DFKHTKSFII [JAM2, P57087]"

# Target: GOPC, Q9HD26
# Assay: holdup assay
# Design: key: below the threshold = too weak to quantify, mostly under pKd 3.1 to 4
# Conditions: plain residues with an end cap or a label only (N-terminal biotin on a linker: ado-ado)
row,pKd,Binder
1,below the threshold,"EFKQTSSFLV [JAM1, Q9Y624]"
2,below the threshold,"DFKHTKSFII [JAM2, P57087]"

# Target: GORASP1, Q9BQQ3
# Assay: holdup assay
# Design: key: below the threshold = too weak to quantify, mostly under pKd 3.1 to 4
# Conditions: plain residues with an end cap or a label only (N-terminal biotin on a linker: ado-ado)
# GORASP1, Q9BQQ3, sequence (Q9BQQ3 1-208): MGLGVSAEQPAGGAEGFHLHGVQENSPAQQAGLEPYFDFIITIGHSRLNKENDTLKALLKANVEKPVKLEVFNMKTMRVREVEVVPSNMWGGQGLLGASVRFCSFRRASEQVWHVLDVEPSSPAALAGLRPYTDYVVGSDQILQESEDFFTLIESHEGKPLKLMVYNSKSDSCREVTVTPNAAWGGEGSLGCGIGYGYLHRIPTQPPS
row,pKd,Binder
1,4.37,"EFKQTSSFLV [JAM1, Q9Y624]"
2,5.07,"DFKHTKSFII [JAM2, P57087]"

# Target: GORASP2, Q9H8Y8
# Assay: holdup assay
# Design: key: below the threshold = too weak to quantify, mostly under pKd 3.1 to 4
# Conditions: plain residues with an end cap or a label only (N-terminal biotin on a linker: ado-ado)
row,pKd,Binder
1,4.83,"EFKQTSSFLV [JAM1, Q9Y624]"
2,5.6,"DFKHTKSFII [JAM2, P57087]"

# Target: GRID2IP_1, A4D2P6
# Assay: holdup assay
# Design: key: below the threshold = too weak to quantify, mostly under pKd 3.1 to 4
# Conditions: plain residues with an end cap or a label only (N-terminal biotin on a linker: ado-ado)
# GRID2IP_1, A4D2P6, sequence (A4D2P6 1-87): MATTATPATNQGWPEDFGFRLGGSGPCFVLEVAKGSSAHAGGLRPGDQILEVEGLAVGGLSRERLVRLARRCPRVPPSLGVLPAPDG
row,pKd,Binder
1,below the threshold,"EFKQTSSFLV [JAM1, Q9Y624]"
2,below the threshold,"DFKHTKSFII [JAM2, P57087]"

# Target: T5, GRIP1_3, Q9Y3R0
# Assay: holdup assay
# Design: key: below the threshold = too weak to quantify, mostly under pKd 3.1 to 4
# Conditions: plain residues with an end cap or a label only (N-terminal biotin on a linker: ado-ado)
row,pKd,Binder
1,below the threshold,"EFKQTSSFLV [JAM1, Q9Y624]"
2,below the threshold,"DFKHTKSFII [JAM2, P57087]"

# Target: T6, GRIP1_4, Q9Y3R0
# Assay: holdup assay
# Design: key: below the threshold = too weak to quantify, mostly under pKd 3.1 to 4
# Conditions: plain residues with an end cap or a label only (N-terminal biotin on a linker: ado-ado)
row,pKd,Binder
1,below the threshold,"EFKQTSSFLV [JAM1, Q9Y624]"
2,below the threshold,"DFKHTKSFII [JAM2, P57087]"

# Target: GRIP2_5, Q9C0E4
# Assay: holdup assay
# Design: key: below the threshold = too weak to quantify, mostly under pKd 3.1 to 4
# Conditions: plain residues with an end cap or a label only (N-terminal biotin on a linker: ado-ado)
# GRIP2_5, Q9C0E4, sequence (Q9C0E4 544-642): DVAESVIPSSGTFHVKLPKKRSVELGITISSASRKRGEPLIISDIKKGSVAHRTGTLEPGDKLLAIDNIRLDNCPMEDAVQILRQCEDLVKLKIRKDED
row,pKd,Binder
1,below the threshold,"EFKQTSSFLV [JAM1, Q9Y624]"
2,below the threshold,"DFKHTKSFII [JAM2, P57087]"

# Target: T7, HTRA3, P83110
# Assay: holdup assay
# Design: key: below the threshold = too weak to quantify, mostly under pKd 3.1 to 4
# Conditions: plain residues with an end cap or a label only (N-terminal biotin on a linker: ado-ado)
row,pKd,Binder
1,4.16,"EFKQTSSFLV [JAM1, Q9Y624]"
2,4.1,"DFKHTKSFII [JAM2, P57087]"

# Target: Inadl_2, Q8NI35
# Assay: holdup assay
# Design: key: below the threshold = too weak to quantify, mostly under pKd 3.1 to 4
# Conditions: plain residues with an end cap or a label only (N-terminal biotin on a linker: ado-ado)
# Inadl_2, Q8NI35, sequence (Q8NI35 238-335): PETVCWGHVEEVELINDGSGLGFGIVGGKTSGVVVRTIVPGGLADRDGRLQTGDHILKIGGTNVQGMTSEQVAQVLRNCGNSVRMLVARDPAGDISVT
row,pKd,Binder
1,3.56,"EFKQTSSFLV [JAM1, Q9Y624]"
2,below the threshold,"DFKHTKSFII [JAM2, P57087]"

# Target: T8, LIN7B, Q9HAP6
# Assay: holdup assay
# Design: key: below the threshold = too weak to quantify, mostly under pKd 3.1 to 4
# Conditions: plain residues with an end cap or a label only (N-terminal biotin on a linker: ado-ado)
row,pKd,Binder
1,3.88,"EFKQTSSFLV [JAM1, Q9Y624]"
2,3.63,"DFKHTKSFII [JAM2, P57087]"

# Target: T9, LIN7C, Q9NUP9
# Assay: holdup assay
# Design: key: below the threshold = too weak to quantify, mostly under pKd 3.1 to 4
# Conditions: plain residues with an end cap or a label only (N-terminal biotin on a linker: ado-ado)
row,pKd,Binder
1,below the threshold,"EFKQTSSFLV [JAM1, Q9Y624]"
2,below the threshold,"DFKHTKSFII [JAM2, P57087]"

# Target: MAGI2_4, Q86UL8
# Assay: holdup assay
# Design: key: below the threshold = too weak to quantify, mostly under pKd 3.1 to 4
# Conditions: plain residues with an end cap or a label only (N-terminal biotin on a linker: ado-ado)
# MAGI2_4, Q86UL8, sequence (Q86UL8 772-865): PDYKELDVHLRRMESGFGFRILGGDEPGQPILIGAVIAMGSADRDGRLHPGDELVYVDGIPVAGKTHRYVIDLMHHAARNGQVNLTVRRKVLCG
row,pKd,Binder
1,4.3,"EFKQTSSFLV [JAM1, Q9Y624]"
2,below the threshold,"DFKHTKSFII [JAM2, P57087]"

# Target: T10, MPP7, Q5T2T1
# Assay: holdup assay
# Design: key: below the threshold = too weak to quantify, mostly under pKd 3.1 to 4
# Conditions: plain residues with an end cap or a label only (N-terminal biotin on a linker: ado-ado)
row,pKd,Binder
1,3.74,"EFKQTSSFLV [JAM1, Q9Y624]"
2,3.75,"DFKHTKSFII [JAM2, P57087]"

# Target: NHERF4_2, Q86UT5
# Assay: holdup assay
# Design: key: below the threshold = too weak to quantify, mostly under pKd 3.1 to 4
# Conditions: plain residues with an end cap or a label only (N-terminal biotin on a linker: ado-ado)
# NHERF4_2, Q86UT5, sequence (Q86UT5 220-308): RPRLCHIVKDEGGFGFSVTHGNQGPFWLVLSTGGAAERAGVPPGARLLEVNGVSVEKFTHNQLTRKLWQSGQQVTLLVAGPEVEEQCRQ
row,pKd,Binder
1,below the threshold,"EFKQTSSFLV [JAM1, Q9Y624]"
2,below the threshold,"DFKHTKSFII [JAM2, P57087]"

# Target: T11, PDZRN3_1, Q9UPQ7
# Assay: holdup assay
# Design: key: below the threshold = too weak to quantify, mostly under pKd 3.1 to 4
# Conditions: plain residues with an end cap or a label only (N-terminal biotin on a linker: ado-ado)
row,pKd,Binder
1,below the threshold,"EFKQTSSFLV [JAM1, Q9Y624]"
2,below the threshold,"DFKHTKSFII [JAM2, P57087]"

# Target: T12, SIPA1L2, Q9P2F8
# Assay: holdup assay
# Design: key: below the threshold = too weak to quantify, mostly under pKd 3.1 to 4
# Conditions: plain residues with an end cap or a label only (N-terminal biotin on a linker: ado-ado)
row,pKd,Binder
1,below the threshold,"EFKQTSSFLV [JAM1, Q9Y624]"
2,below the threshold,"DFKHTKSFII [JAM2, P57087]"

# Target: T13, SNTA1, Q13424
# Assay: holdup assay
# Design: key: below the threshold = too weak to quantify, mostly under pKd 3.1 to 4
# Conditions: plain residues with an end cap or a label only (N-terminal biotin on a linker: ado-ado)
row,pKd,Binder
1,below the threshold,"EFKQTSSFLV [JAM1, Q9Y624]"
2,below the threshold,"DFKHTKSFII [JAM2, P57087]"

# From publication PMC9482650, “Quantitative fragmentomics allow affinity mapping of interactomes” (Nature Communications, 2022)
